Tests used:
Experiment in all cases: ELISA, lectin-captured E1E2 lysate, Ab 1 ug/ml;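 further: E1E2 captured on Galanthus nivalis lectin-coated plates, bound antibody read out via HRP-linked secondary antibody with TMB colorimetric substrate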
[1] = biological target: E1E2 complex (H77) with E2 mutation G635A (HCV genotype 1a, isolate H77, UniProt P27958 192-383; P27958 384-746)
[2] = biological target: E1E2 complex (H77) with E2 mutation L441A (HCV genotype 1a, isolate H77, UniProt P27958 192-383; P27958 384-746)
[3] = biological target: E1E2 complex (H77) with E2 mutation Y443A (HCV genotype 1a, isolate H77, UniProt P27958 192-383; P27958 384-746)
[4] = biological target: E1E2 complex (H77) with E2 mutation T435A (HCV genotype 1a, isolate H77, UniProt P27958 192-383; P27958 384-746)
[5] = biological target: E1E2 complex (H77) with E2 mutation N428A (HCV genotype 1a, isolate H77, UniProt P27958 192-383; P27958 384-746)
[6] = biological target: E1E2 complex (H77) with E2 mutation N623A (HCV genotype 1a, isolate H77, UniProt P27958 192-383; P27958 384-746)
[7] = biological target: E1E2 complex (H77) with E2 mutation N448A (HCV genotype 1a, isolate H77, UniProt P27958 192-383; P27958 384-746)
[8] = biological target: E1E2 complex (H77) with E2 mutation A643G (HCV genotype 1a, isolate H77, UniProt P27958 192-383; P27958 384-746)
[9] = biological target: E1E2 complex (H77) with E2 mutation A642G (HCV genotype 1a, isolate H77, UniProt P27958 192-383; P27958 384-746)
[10] = biological target: E1E2 complex (H77) with E2 mutation H617A (HCV genotype 1a, isolate H77, UniProt P27958 192-383; P27958 384-746)
[11] = biological target: E1E2 complex (H77) with E2 mutation H638A (HCV genotype 1a, isolate H77, UniProt P27958 192-383; P27958 384-746)
[12] = biological target: E1E2 complex (H77) with E2 mutation F447A (HCV genotype 1a, isolate H77, UniProt P27958 192-383; P27958 384-746)
[13] = biological target: E1E2 complex (H77) with E2 mutation R614A (HCV genotype 1a, isolate H77, UniProt P27958 192-383; P27958 384-746)
[14] = biological target: E1E2 complex (H77) with E2 mutation T425A (HCV genotype 1a, isolate H77, UniProt P27958 192-383; P27958 384-746)
[15] = biological target: E1E2 complex (H77) with E2 mutation R639A (HCV genotype 1a, isolate H77, UniProt P27958 192-383; P27958 384-746)
[16] = biological target: E1E2 complex (H77) with E2 mutation E637A (HCV genotype 1a, isolate H77, UniProt P27958 192-383; P27958 384-746)
[17] = biological target: E1E2 complex (H77) with E2 mutation F442A (HCV genotype 1a, isolate H77, UniProt P27958 192-383; P27958 384-746)
[18] = biological target: E1E2 complex (H77) with E2 mutation Y618A (HCV genotype 1a, isolate H77, UniProt P27958 192-383; P27958 384-746)
[19] = biological target: E1E2 complex (H77) with E2 mutation P619A (HCV genotype 1a, isolate H77, UniProt P27958 192-383; P27958 384-746)
[20] = biological target: E1E2 complex (H77) with E2 mutation G634A (HCV genotype 1a, isolate H77, UniProt P27958 192-383; P27958 384-746)
[21] = biological target: E1E2 complex (H77) with E2 mutation A439G (HCV genotype 1a, isolate H77, UniProt P27958 192-383; P27958 384-746)
[22] = biological target: E1E2 complex (H77) with E2 mutation T621A (HCV genotype 1a, isolate H77, UniProt P27958 192-383; P27958 384-746)

B1: N4 IgG (antibody, V domains shown)
VH: VQLLEQSGPEVKKPGDSLRISCKMSGDSLVTTWIGWVRQKPGQGLEWMGIINPGDSSTNIYPGDSATRYGPSFQGQVTISIDKSTSTAYLQWNNVKASDTGIYYCARHVPVPISGTFLWREREMHDFGYFDDWGQGTLVIVSS
VL: ELTLTQSPGTLSLSPGERATLSCRASQSVSNNYLAWYQQKPGQAPRLLIYGASSRATGIPDRFSGSGSGTGFTLIISRLEPEDFAVYYCQQYGSSSITFGQGTRLEIKR
notes: also called IgG N4
- Binding relative to wt (%) [1]: 80%
- Binding relative to wt (%) [2]: 18%
- Binding relative to wt (%) [3]: 5%
- Binding relative to wt (%) [4]: 122%
- Binding relative to wt (%) [5]: 98%
- Binding relative to wt (%) [6]: 54%
- Binding relative to wt (%) [7]: 48%
- Binding relative to wt (%) [8]: 34%
- Binding relative to wt (%) [9]: 65%
- Binding relative to wt (%) [10]: 21%
- Binding relative to wt (%) [11]: 12%
- Binding relative to wt (%) [12]: 28%
- Binding relative to wt (%) [13]: 16%
- Binding relative to wt (%) [14]: 100%
- Binding relative to wt (%) [15]: 114%
- Binding relative to wt (%) [16]: 67%
- Binding relative to wt (%) [17]: 22%
- Binding relative to wt (%) [18]: 33%
- Binding relative to wt (%) [19]: 41%
- Binding relative to wt (%) [20]: 117%
- Binding relative to wt (%) [21]: 12%
- Binding relative to wt (%) [22]: 34%
